{"source": "patent US20110124560A1", "about": "(University of Pennsylvania, published 2011)", "proteins": {"B1": {"name": "FOXP3 delK250 mutant (other, human, UniProt Q9BZS1 1-431, looked up, not shown: small tags and cut ends)", "chain": "MPNPRPGKPSAPSLALGPSPGASPSWRAAPKASDLLGARGPGGTFQGRDLRGGAHASSSSLNPMPPSQLQLPTLPLVMVAPSGARLGPLPHLQALLQDRPHFMHQLSTVDAHARTPVLQVHPLESPAMISLTPPTTATGVFSLKARPGLPPGINVASLEWVSREPALLCTFPNPSAPRKDSTLSAVPQSSYPLLANGVCKWPGCEKVFEEPEDFLKHCQADHLLDEKGRAQCLLQREMVQSLEQQLVLEEKLSAMQAHLAGKMALTKASSVASSDKGSCCIVAAGSQGPVVPAWSGPREAPDSLFAVRRHLWGSHGNSTFPEFLHNMDYFKFHNMRPPFTYATLIRWAILEAPEKQRTLNEIYHWFTRMFAFFRNHPATWKNAIRHNLSLHKCFVRVESEKGAVWTVDELEFRKKRSQRPSRCSNPTPGP", "notes": "Deletion, not a substitution: K250 is removed; also called myc-delK250 FOXP3a; FOXP3 K250 deletion mutant"}, "B2": {"name": "His-tagged full length FOXP3a (other, human, UniProt Q9BZS1 1-431, looked up)", "chain": "MPNPRPGKPSAPSLALGPSPGASPSWRAAPKASDLLGARGPGGTFQGRDLRGGAHASSSSLNPMPPSQLQLPTLPLVMVAPSGARLGPLPHLQALLQDRPHFMHQLSTVDAHARTPVLQVHPLESPAMISLTPPTTATGVFSLKARPGLPPGINVASLEWVSREPALLCTFPNPSAPRKDSTLSAVPQSSYPLLANGVCKWPGCEKVFEEPEDFLKHCQADHLLDEKGRAQCLLQREMVQSLEQQLVLEKEKLSAMQAHLAGKMALTKASSVASSDKGSCCIVAAGSQGPVVPAWSGPREAPDSLFAVRRHLWGSHGNSTFPEFLHNMDYFKFHNMRPPFTYATLIRWAILEAPEKQRTLNEIYHWFTRMFAFFRNHPATWKNAIRHNLSLHKCFVRVESEKGAVWTVDELEFRKKRSQRPSRCSNPTPGP", "notes": "Expressed in Sf9 insect cells, purified by Ni-NTA; also called Full length FOXP3a (the large isoform) with a 6x His tag; purified His-tagged FOXP3a; not shown: 6x His tag"}}, "key": {"[1]": {"biological_target": "the molecule itself", "assay": "co-immunoprecipitation from transfected HEK293T cells", "excerpt": "Full-length FOXP3 E251 and K250 deletion mutants were created by site-directed mutagenesis and subcloned into mammalian expression vectors containing either myc or HA epitope tags at the N-terminus. HEK293T cells were transfected with the myc-tagged wild type FOXP3, myc-tagged FOXP3-delE251, HA-tagged wild type FOXP3, or HA-tagged FOXP3-delE251 vectors as indicated (FIG. 2C). The HA-tagged wild type FOXP3 species was able to homo-associate with the myc-tagged wild type FOXP3, but not with the myc-tagged delE251 mutant, and vice versa (FIG. 2C). […] Thus the leucine zipper domain is essential for FOXP3 homo-association."}, "[2]": {"biological_target": "the molecule itself", "assay": "gel filtration of purified protein, fractions immunoblotted with anti-FOXP3 221D (self-association)", "excerpt": "FIG. 2A is an image of an immunoblot and a corresponding graph of the relative amounts of FOXP3a detected by the immunoblot. To generate the immunoblot, purified His-tagged FOXP3a was size fractionated by gel filtration, and the fractions were subject to immunoblotting with anti-FOXP3 antibody. ImageJ software (http://rsb.info.nih.gov/ij/) was used for relative quantification of the bands.\nFull length FOXP3a (the large isoform) with a 6× His tag was expressed in Sf9 insect cells and purified by Ni-NTA column. The purified His-tagged full length FOXP3a was size fractionated, followed by SDS-PAGE and immunoblotting of the individual fractions with anti-FOXP3 mAb 221D. Purified full length FOXP3a eluted from the gel filtration column as a dominant mixture of monomers, dimers, tetramers, and a detectable amount of oligomeric species (FIG. 2A)."}}, "data": [{"protein": "B1", "values": [{"measurement": "binding result", "setting": "[1]", "result": "no binding"}]}, {"protein": "B2", "values": [{"measurement": "binding result", "setting": "[2]", "result": "binds"}]}]}
